These results are taken from US8158851B2, “Transgenic high tryptophan plants” (Monsanto Technology LLC, priority 2002, dated 2012).

Series [1] has as its target T1, Rhizobium meliloti anthranilate synthase, monomeric (SEQ ID NO: 7) (Rhizobium meliloti, UniProt P15395).
T1 construct: made in house; host or cells: E. coli BL-21, plasmid pMON66596 (pSE280)
T1 sequence (P15395 1-729): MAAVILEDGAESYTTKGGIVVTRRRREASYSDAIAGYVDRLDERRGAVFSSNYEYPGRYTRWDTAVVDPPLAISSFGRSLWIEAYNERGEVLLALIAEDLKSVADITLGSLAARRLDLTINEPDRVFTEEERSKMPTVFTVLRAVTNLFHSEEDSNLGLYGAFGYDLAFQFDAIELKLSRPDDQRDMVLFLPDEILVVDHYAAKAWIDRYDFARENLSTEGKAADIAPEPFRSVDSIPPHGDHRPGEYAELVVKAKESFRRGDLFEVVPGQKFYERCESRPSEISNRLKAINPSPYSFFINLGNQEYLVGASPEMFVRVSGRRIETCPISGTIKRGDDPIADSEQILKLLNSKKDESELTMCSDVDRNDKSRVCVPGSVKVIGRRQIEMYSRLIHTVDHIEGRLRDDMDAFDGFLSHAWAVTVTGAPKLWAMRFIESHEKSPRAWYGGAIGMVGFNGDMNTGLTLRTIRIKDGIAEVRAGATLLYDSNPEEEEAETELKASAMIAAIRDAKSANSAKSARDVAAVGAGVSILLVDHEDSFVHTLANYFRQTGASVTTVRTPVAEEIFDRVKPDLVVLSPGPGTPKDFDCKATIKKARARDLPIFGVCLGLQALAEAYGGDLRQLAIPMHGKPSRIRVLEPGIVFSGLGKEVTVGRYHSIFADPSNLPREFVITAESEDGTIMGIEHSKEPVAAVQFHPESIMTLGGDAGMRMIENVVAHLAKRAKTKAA
Nature of the series: Activity assay of crude cell extract by HPLC. Format: biochemical. Conditions: BL-21 cells with pMON66596, HPLC, read-out: ICso (trp). From the text:
pMON66596 was transformed into BL-21 cells and induced with IPTG to express protein.

In series [2] the test system is Ruta graveolens anthranilate synthase. Conditions: Bohlmann et al. 1996; cited from earlier work.
Another series has as its system soy seed. The series is described as follows: Free amino acid analysis of soy seed (tryptophan content). Format: in vivo, Glycine max. Conditions: R1 soy seeds expressing the mutant protein. The method, then: Amino Acid Extraction: About 50 mg of crushed soy seed (5 mg of Arabidopsis) material was placed in each centrifuge vial. One milliliter of 5% trichloroacetic acid was added to each sample (100 μl for Arabidopsis). The samples were vortexed, and allowed to sit, with agitation, at room temperature for 15 min. They were then microcentrifuged for 15 min at 14000 rpm. Some of the supernatant was then removed, placed in a HPLC vial and sealed. Samples were kept at 4° C. in the analysis queue.
Amino Acid Analysis: The reagents utilized for amino acid analysis included the OPA reagent (o-phthalaldehyde and 3-mercaptopropionic acid in borate buffer (Hewlett-Packard, PN 5061-3335)) where the borate buffer (0.4 N in water, pH 10.2). The analysis was performed using the Agilent 1100 series HPLC system as described in the Agilent Technical Publication, “Amino Acid Analysis Using Zorbax Eclipse-AAA Columns and the Agilent 1100 HPLC”, Mar. 17, 2000. First, 0.5 μl of the sample was derivatized with 2.5 μl of OPA reagent in 10 μl of borate buffer. Second, the derivative is injected onto a Eclipse XDB-C18 5 μm, 4.6×150 mm column using a flow rate of 1.2 ml/min. Amino acid concentrations were measured using fluorescence: excitation at 340 nm, emission at 450 nm. Elution was with a gradient of HPLC Buffers A and B according to Table A, where HPLC Buffer A was 40 mM Na2HPO4, pH=7.8 and HPLC Buffer B was 9:9:2::Methanol:Acetonitrile:Water.
Amino acid standards were prepared from the dry chemicals, using all amino acids of interest. Proline analysis required an additional derivatization step with 9-fluorenylmethyl-chloroformate (FMOC). Amino acid standards were also sometimes purchased in concentrations ranging from 0 to 100 μg/ml. Samples were reported in μg/g of seed powder.
Mature R1 seed is produced and analyzed for free amino acid content using fluorescence detection as described in Agilent Technologies Technical Bulletin REV14. Five seeds are chosen for single seed analysis from each event. […] The highest levels of tryptophan have a negative impact on germination.

The next series relates to Agro AS. The series is described as follows: Agro AS enzyme assay, HPLC end-point, desalted extracts of individual soybean seeds. Format: biochemical, Agrobacterium tumefaciens. Conditions: R1 soy seeds carrying the mutant allele. The method, then: The specific activity of anthranilate synthase was measured in eleven transformation events carrying the pMON58120 construct. Individual soybean immature seeds were analyzed using an HPLC-based end-point assay based on the method described by C. Paulsen (J. Chromatogr., 547:155-160 (1991)). Briefly, desalted extracts were generated from individual seeds in grinding buffer (100 mM Tris pH7.5, 10% glycerol, 1 mM EDTA, 1 mM DTT) and incubated for 30 min with reaction buffer (100 mM tris pH 7.5, 1 mM chorismate, 20 mM glutamine, and 10 mM MgCl2). Agro AS activity was measured in the presence or absence of 25 mM trp. The reaction was stopped with phosphoric acid and the amount of anthranilate formed was quantified by HPLC using a fluorescence detector set at 340 nm/excitation and 410 nm/emission.

The subject of series [3] is Agrobacterium tumefaciens AS. The series is described as follows: Anthranilate synthase enzyme assay and kinetic analysis of purified enzymes. Format: biochemical. Conditions: for Km: 25° C. Here is the method:
Agrobacterium tumefaciens AS wild type and mutant enzymes were expressed in E. coli as described in Example 1. The purification of all the Agrobacterium tumefaciens AS enzymes, including wild type and mutants thereof, was performed at 4° C. The cells (approximate wet weight of 1 g) were suspended in 20 ml of purification buffer (50 mM potassium phosphate, pH 7.3, 10 mM MgCl2, 10 mM 2-mercaptoethanol, 10% glycerol) and lysed by ultrasonication (Branson sonifier Cell Disruptor, W185). Supernatant was collected after centrifugation of the homogenate at 20,000×g for 15 min. The supernatant was subjected to ammonium sulfate fractionation (30 to 65% saturation). The precipitate was collected after centrifugation at 20,000×g for 15 min and dissolved in 3 ml of the purification buffer and then loaded as a whole on an Econo-Pac 10DG desalting column, pre-equilibrated with the same buffer. Fractions containing the enzyme were detected by the developed assay and pooled. The pooled enzyme (4.3 mls) was loaded on a 10 ml DEAF Sephacel (Pharmacia Biotech) column (1.5×7.5 cm) equilibrated with the same buffer. The column was washed with 30 ml of the purification buffer and the enzyme was eluted with 30 ml of 50 mM NaCl in the same buffer. Fractions containing high AS activity were pooled and precipitated by 65% ammonium sulfate saturation and isolated and desalted as above. Fractions containing the enzyme were pooled and stored at −80° C.
The standard assay for Agrobacterium tumefaciens AS was performed at 25° C. in an assay buffer containing 100 mM potassium phosphate, pH 7.0, 10 mM MgCl2, 1 mM dithiothreitol, 200 μM chorismate and 10 mM L-glutamine. The reaction was started by adding 30 μl of enzyme to the reaction mixture and mixing. The formation of anthranilate was directly monitored by the absorbance increase at 320 m for 3 minutes. Initial rate of reaction was calculated as unit absorbance increase per second based on the slope of the absorbance change over the reaction time. Km for chorismate (Km^Cho) was determined in the total volume of 1 ml assay buffer containing 100 mM potassium phosphate, pH 7.0, 10 mM MgCl2, 1 mM dithiothreitol with 10 mM L-glutamine and varying the concentration of chorismate between 2.5-100 μM chorismate. The Km for glutamine (Km^Gln) was determined in the total volume of 1 ml assay buffer containing 100 mM potassium phosphate, pH 7.0, 10 mM MgCl2, 1 mM dithiothreitol with 200 μM chorismate and varying the concentration of L-glutamine between 0.1-2 mM L-glutamine. IC50 for tryptophan (IC50^Trp) was determined with in the total volume of 1 ml assay buffer containing 100 mM potassium phosphate, pH 7.0, 10 mM MgCl2, 1 mM dithiothreitol, 10 mM L-glutamine, 200 μM chorismate and varying the concentration of L-tryptophan between 0.1-10 mM L-tryptophan. Kinetic parameters and IC50 of AS were calculated after fitting the data to a non-linear regression program (GraFit).

Changes are numbered by the printed parent chain. Read-outs that look alike come from different tables or passages of the source.

Turning to `N[C@@H](Cc1c[nH]c2ccccc12)C(=O)O` [tryptophan, L-tryptophan], in series [1], the IC50 is around 10 µM.

B1: Ruta graveolens anthranilate synthase α-subunit: Ruta graveolens anthranilate synthase α-subunit isoenzyme, Genbank GI 960291 (protein, listed as Ruta graveolens)
chain: MSAAATSMQSLKFSNRLVPPSRRLSPVPNNVTCNNLPKSAAPVRTVKCCASSWNSTINGAAATTNGASAASNGASTTTTTYVSDATRFIDSSKRANLVPLYRCIFADHLTPVLAYRCLVQEDDKETPSFLFESVEPGRISTVGRYSVVGAHPVMEVIAKDNMVTVMDHEKGSLVEEVVDDPMEIPRRISEDWKPQIIDDLPEAFCGGWVGFFSYDTVRYVEKKKLPFSKAPQDDRNLADMHLGLYNDVIVFDHVEKKVYVIHWVRLNQQSSEEKAYAEGLEHLERLVSRVQDENTPRLAPGSIDLHTGHFGPPLKKSNMTCEEYKMAVLAAKEHIQAGDIFQIVLSQRFERRTFADPFEVYRALRVVNPSPYMTYMQARGCVLVASSPEILTRVKKNKIVNRPLAGTARRGRTTEEDEMLETQLLKDAKQCAEHVMLVDLGRNDVGKVSKSGSVKVEKLMNVERYSHVMHISSTVTGELQDNLSCWDALRAALPVGTVSGAPKVKAMELIDELEVNRRGPYSGGFGGISFTGDMDIALALRTIVFQTGTRYDTMYSYKNATKRRQWVAYLQAGAGIVADSDPDDEHRECQNKAAGLARAIDLAESAFVNKSSS
Turning to B1, in series [2], the “sensitivity to tryptophan inhibition” value is given as “less sensitive to tryptophan inhibition”.

B2: F298W (protein)
chain: MVTIIQDDGAETYETKGGIQVSRKRRPTDYANAIDNYIEKLDSHRGAVFSSNYEYPGRYTRWDTAIVDPPLGISCFGRKMWIEAYNGRGEVLLDFITEKLKATPDLTLGASSTRRLDLTVNEPDRVFTEEERSKIPTVFTALRAIVDLFYSSADSAIGLFGAFGYDLAFQFDAIKLSLARPEDQRDMVLFLPDEILVVDHYSAKAWIDRYDFEKDGMTTDGKSSDITPDPFKTTDTIPPKGDHRPGEYSELVVKAKESFRRGDLFEVVPGQKFMERCESNPSAISRRLKAINPSPYSWFINLGDQEYLVGASPEMFVRVSGRRIETCPISGTIKRGDDPIADSEQILKLLNSKKDESELTMCSDVDRNDKSRVCEPGSVKVIGRRQIEMYSRLIHTVDHIEGRLRDDMDAFDGFLSHAWAVTVTGAPKLWAMRFIEGHEKSPRAWYGGAIGMVGFNGDMNTGLTLRTIRIKDGIAEVRAGATLLNDSNPQEEEAETELKASAMISAIRDAKGTNSAATKRDAAKVGTGVKILLVDHEDSFVHTLANYFRQTGATVSTVRSPVAADVFDRFQPDLVVLSPGPGSPTDFDCKATIKAARARDLPIFGVCLGLQALAEAYGGELRQLAVPMHGKPSRIRVLEPGLVFSGLGKEVTVGRYHSIFADPATLPRDFIITAESEDGTIMGIEHAKEPVAAVQFHPESIMTLGQDAGMRMIENVVVHLTRKAKTKAA
modifications: An A. tumefaciens mutant.
One may read the Km as the concentration of substrate that gives half-maximal velocity. As usually defined, the kcat is the maximal rate divided by the concentration of active sites. As for B2, the amounts of tryptophan entry with soy seed is reported as “very high amounts of tryptophan”. The “tryptophan-resistant anthranilate synthase activity” value with Agro AS is “Very high levels”. The Km came out at 140 µM in series [3] (pH 7.0, 200 μM chorismate, L-glutamine varied, read-out: Km^Gln) and 18 µM in series [3] (pH 7.0, 10 mM L-glutamine, chorismate varied, read-out: Km^Cho). Further, the IC50 in series [3] (inhibition by L-tryptophan, 10 mM L-glutamine, 200 μM chorismate) worked out at 450 µM. In addition, the kcat in series [3] (purified enzyme from E. coli) is 0.44 s⁻¹.

B3: S51F (protein)
chain: B2 chain with S51F, W298F
modifications: An A. tumefaciens mutant.
As for B3, in the series on soy seed, the amounts of tryptophan entry was “very high amounts of tryptophan”. In addition, in the series on Agro AS, the “tryptophan-resistant anthranilate synthase activity” value was “Very high levels”.
